B1: Pistol ribozyme (parent)
chain: GGGUCGUUGUUCCAUAAUCGCGUGGAUAUGGCACGCAAGUUUCUACCGGGCACCGUAAAUGUCCGACUGGAGCCGUUCGGGCGGCUAUAAACAGACCUCAGGCCCGAAGCGUGGCGGCACCUGCCGCCGGUGGUAAAAAAGAUCGGAAGAGCACACGUCU

Variants of: B1
Assay: aptazyme ON/OFF ratio, guanine; higher = stronger switching; co-transcriptional cleavage with and without guanine

Variant	aptazyme ON/OFF ratio
U7C U8G G9C U10G U11C C12A C13G	1.16
U7C U8G G9C U10G U11C C12A C13A	1.31
U7C U8G G9C U10G U11C C12A C13U	1.35
U7C U8G G9C U11A C12U C13U	1.16
U7C U8G G9C U11A C12U C13A	1.19
U7C U8G G9C U11A C12U C13G	1.09
U7C U8G G9U U10G U11G C12U C13U	1.26
U7C U8G G9U U10G U11G C12U C13A	1.2
U7C U8G G9U U10G U11G C12U C13G	1.18
U7C U8G G9C U11G C12A C13U	1.14
U7C U8G G9C U11G C12A C13G	1.18
U7C U8G G9C U11G C12A C13A	1.14
U7C U8G G9C U11C C12U C13U	1.07
U7C U8G G9C U11C C12U C13G	1.07
U7C U8G G9C U11C C12U C13A	1.15
U7C U8G G9C U11G C12A	1.12
U7C U8G G9C U11G C12U	1.23
U7C U8G G9C U11G C12G	1.19
U7C U8G G9U U11A	1.58
U7C U8G G9U U10A U11A C12A	1.25
U7C U8G G9U U10A U11A C12U	1.33
U7C U8G G9U U10A U11A C12G	1.11
U7C U8G G9U U10G U11C C12G C13G	1.07
U7C U8G G9U U10G U11C C12G C13A	1.03

Variant	aptazyme ON/OFF ratio
U7C U8G G9U U10G U11C C12G C13U	1.08
U7C U8G G9C U11C C12G C13A	1.4
U7C U8G G9C U11C C12G C13U	1.27
U7C U8G G9C U11C C12G C13G	1.08
U7C U8G G9U U10G U11C C12U C13G	1.08
U7C U8G G9U U10G U11C C12U C13A	1.13
U7C U8G G9U U10G U11C C12U C13U	1.04
U7C U8G G9C U11G C12U C13A	1.2
U7C U8G G9C U11G C12U C13U	1.37
U7C U8G G9C U11G C12U C13G	1.21
U7C U8G G9C U10C U11G C13U	1.19
U7C U8G G9C U10C U11G C13G	1.11
U7C U8G G9C U10C U11G C13A	1.11
U7C U8G G9C U10G U11A C12A C13G	1.21
U7C U8G G9C U10G U11A C12A C13A	1.31
U7C U8G G9C U10G U11A C12A C13U	1.23
U7C U8G G9U U10C U11C C12A C13G	1.19
U7C U8G G9U U10C U11C C12A C13A	1.06
U7C U8G G9U U10C U11C C12A C13U	1.18
U7C U8G G9C U10G C12G C13U	1.13
U7C U8G G9C U10G C12G C13G	1.12
U7C U8G G9C U10G C12G C13A	1.18
U7C U8G G9U U10G U11C C12U	1.09
U7C U8G G9U U10G U11C C12A	1.18

Variant	aptazyme ON/OFF ratio
U7C U8G G9U U10G U11C C12G	1.18
U7C U8G G9U U10C U11A C13G	1.24
U7C U8G G9U U10C U11A C13A	1.24
U7C U8G G9U U10C U11A C13U	1.35
U7C U8G G9U U10C U11G C12A	1.14
U7C U8G G9U U10C U11G C12G	1.21
U7C U8G G9U U10C U11G C12U	1.28
U7C U8G G9U U10G U11C C12A C13G	1.06
U7C U8G G9U U10G U11C C12A C13U	1.15
U7C U8G G9U U10G U11C C12A C13A	1.11
U7C U8G G9U U10C U11C C12G C13G	1.08
U7C U8G G9U U10C U11C C12G C13U	1.04
U7C U8G G9U U10C U11C C12G C13A	1.13
U7C U8G G9C U10G U11G C12G C13A	1.1
U7C U8G G9C U10G U11G C12G C13G	1.09
U7C U8G G9C U10G U11G C12G C13U	1.15
U7C U8G G9U C12A C13G	1.27
U7C U8G G9U C12A C13U	1.37
U7C U8G G9U C12A C13A	1.42
U7C U8G G9C U10G U11C C13A	1.25
U7C U8G G9C U10G U11C C13G	1.05
U7C U8G G9C U10G U11C C13U	1.07
U7C U8G G9U U10G U11A C12A	1.25
U7C U8G G9U U10G U11A C12U	1.13

Variant	aptazyme ON/OFF ratio
U7C U8G G9U U10G U11A C12G	1.17
U7C U8G G9C U11A C13U	1.26
U7C U8G G9C U11A C13G	1.06
U7C U8G G9C U11A C13A	1.17
U7C U8G G9C U10G U11G C12G	1.13
U7C U8G G9C U10G U11G C12A	1.18
U7C U8G G9C U10G U11G C12U	1.29
U7C U8G G9U U10G U11A C12G C13G	1.3
U7C U8G G9U U10G U11A C12G C13U	1.32
U7C U8G G9U U10G U11A C12G C13A	1.15
U7C U8G G9C U11A	1.86
U7C U8G G9C U11G	1.2
U7C U8G G9C U11C	1.18
U7C U8G G9U U10A U11A	1.34
U7C U8G G9U U10A U11G	1.22
U7C U8G G9U U10A U11C	1.04
U7C U8G G9C U10G U11C C12U C13A	1.26
U7C U8G G9C U10G U11C C12U C13G	1.25
U7C U8G G9C U10G U11C C12U C13U	1.21
U7C U8G G9C U11A C12A C13G	1.11
U7C U8G G9C U11A C12A C13A	1.15
U7C U8G G9C U11A C12A C13U	1.22
U7C U8G G9U U10G C12A C13A	1.12
U7C U8G G9U U10G C12A C13U	1.15

Variant	aptazyme ON/OFF ratio
U7C U8G G9U U10G C12A C13G	1.09
U7C U8G G9U U10A U11G C12A	1.11
U7C U8G G9U U10A U11G C12G	1.23
U7C U8G G9U U10A U11G C12U	1.19
U7C U8G G9U U10A U11A C12A C13A	1.16
U7C U8G G9U U10A U11A C12A C13U	1.24
U7C U8G G9U U10A U11A C12A C13G	1.14
U7C U8G G9U U10A U11C C13G	1.05
U7C U8G G9U U10A U11C C13A	1.05
U7C U8G G9U U10A U11C C13U	1.02
U7C U8G G9C U11C C13G	1.05
U7C U8G G9C U11C C13U	1.38
U7C U8G G9C U11C C13A	1.47
U7C U8G G9U U11A C12G C13A	1.05
U7C U8G G9U U11A C12G C13G	1.09
U7C U8G G9U U10G C13G	1.17
U7C U8G G9U U10G C13A	1.19
U7C U8G G9U U10G C13U	1.2
U7C U8G G9U U10A U11C C12U C13U	1.06
U7C U8G G9U U10A U11C C12U C13A	1.09
U7C U8G G9U U10A U11C C12U C13G	1.11
U7C U8G G9C U10G U11C	1.04
U7C U8G G9C U10G U11A	1.07
U7C U8G G9C U10G U11G	1.23

Variant	aptazyme ON/OFF ratio
U7C U8G G9U C12U C13A	1.31
U7C U8G G9U C12U C13U	1.2
U7C U8G G9U C12U C13G	1.33
U7C U8G G9U U10A U11A C13U	1.22
U7C U8G G9U U10A U11A C13G	1.09
U7C U8G G9U U10A U11A C13A	1.19
U7C U8G G9U U11A C12A	1.52
U7C U8G G9U U11A C12G	1.18
U7C U8G G9C U11C C12A C13A	1.12
U7C U8G G9C U11C C12A C13U	2.13
U7C U8G G9C U11C C12A C13G	1.09
U7C U8G G9U U10A U11C C12G C13U	1.19
U7C U8G G9U U10A U11C C12G C13A	1.16
U7C U8G G9U U10A U11C C12G C13G	1.27
U7C U8G G9U U10A U11G C12A C13G	1.14
U7C U8G G9U U10A U11G C12A C13A	1.11
U7C U8G G9U U10A U11G C12A C13U	1.06
U7C U8G G9U U10C U11A C12U	1.41
U7C U8G G9U U10C U11A C12G	1.26
U7C U8G G9U U10C U11A C12A	1.43
U7C U8G G9C U10G U11A C12G	1.24
U7C U8G G9C U10G U11A C12U	1.24
U7C U8G G9C U10G U11A C12A	1.34
U7C U8G G9U C13G	1.06

Variant	aptazyme ON/OFF ratio
U7C U8G G9U C13A	1.31
U7C U8G G9U C13U	1.55
U7C U8G G9U U10A U11C C12A	1.14
U7C U8G G9U U10A U11C C12G	1.2
U7C U8G G9U U10A U11C C12U	1.04
U7C U8G G9U U11A C12A C13A	1.32
U7C U8G G9U U11A C12A C13G	1.19
U7C U8G G9U U11A C12A C13U	1.21
U7C U8G G9C U10G C12A C13U	1.26
U7C U8G G9C U10G C12A C13A	1.16
U7C U8G G9C U10G C12A C13G	1.09
U7C U8G G9U U10G U11A C12A C13G	1.17
U7C U8G G9U U10G U11A C12A C13U	1.26
U7C U8G G9U U10G U11A C12A C13A	1.18
U7C U8G G9U U10G U11G C12A C13U	1.19
U7C U8G G9U U10G U11G C12A C13G	1.05
U7C U8G G9U U10G U11G C12A C13A	1.1
U7C U8G G9U C12G C13A	1.17
U7C U8G G9U C12G C13G	1.25
U7C U8G G9U C12G C13U	1.28
U7C U8G G9U U10A C12A C13U	1.22
U7C U8G G9U U10A C12A C13G	1.15
U7C U8G G9U U10A C12A C13A	1.15

Source: the RNAGym collection of RNA variant scans (doi:10.1021/acssynbio.7b00057)
